According to paper PMC3044691 (2011):

Biological target: monomeric sCD4 (D1D2)
Test: SPR

B1: JR-FL gp120 (natural protein)
chain: not shown
Kd: 12 nM
